Where two headings read alike, the source gives them in different places.
Assays:
HUVECs = experiment: Real-time quantitative RT-PCR of mRNA levels in HUVECs; format: cell-based, human
Experimental: RNA was isolated with Trizol (Invitrogen) and used as a template for reverse transcriptase (reverse transcriptase mix sold under the trademark ISCRIPT® RT supermix, Bio-Rad). mRNAs were quantified by real-time PCR with the cyanine nucleic acid dye IQ SYBR® Green Supermix (Bio-Rad), and normalized against PPIA mRNA as the internal control gene. Relative changes in expression were calculated using the […] as established in prior studies. (Livak K J, Schmittgen T D. “Analysis of relative gene expression data using real-time quantitative PCR and the 2^−ΔΔCT method.” Methods. 2001; 25(4):402-8).

SARS-CoV-2 = format: cell-based, human; settings: for sgm-N RNA copies compared to no F-652 treatment: MOI 0.1, 48 hours post challenge
STAT3 = settings: F-652 alone compared to control HUVECs
Experimental: To investigate the effects of F-652 on EGX, cultured HUVECs were exposed to either untreated media, 1 μg/mL of LPS, 1 μg/mL of LPS and 0.375 μg/mL of F-652, or 0.375 μg/mL of F-652 alone, for a total of 24 hours.
HUVECs were lysed in lysis buffer (50 mM Tris-HCl pH 7.5, 150 mM NaCl, 0.5 M EDTA, 1% Triton X-100, and Halt™ protease inhibitor cocktail). Proteins were quantified using Bio-Rad protein quantification assay (Bio-Rad Laboratories), and 20-50 μg of protein was separated by SDS-polyacrylamide gel electrophoresis (SDS-PAGE) on a 4-12% gradient acrylamide gel run at 100 V. Proteins were then transferred to 0.45 m PVDF membrane at 30 V for 2 hours. Membranes were blocked in Tris Buffered Saline (TBS: 137 mM NaCl, 20 mM Tris Base), 0.1% Tween 20, and 5% bovine serum albumin (blocking solution) for 1 hour, followed by overnight incubation with primary antibody diluted in TBS, 0.1% Tween 20, and 3% BSA, and 1 hour incubation with horseradish peroxidase-conjugated secondary antibody diluted at 1:5,000. […] Immunoreactive protein was detected using ECL (GE Healthcare) imaged on a Bio-Rad ChemiDoc™ MP Imaging System.

IL-22Ra1 = IL-22Ra1 receptor immunofluorescence in HUVECs; format: cell-based, human
Experimental: HUVECs were fixed in 3.5% formaldehyde in PBS for 10 minutes. Cells were then blocked in 1% BSA in PBS for one hour. Cells were then incubated overnight in primary antibody for IL-22Ra1 (Invitrogen, Carlsbad, Calif.) diluted 1:100 in 1% BSA in PBS. Cells were then washed with PBS 3 times. Cells were incubated with secondary antibody, goat anti-mouse Alexa Fluor 488 (1:500; Invitrogen, A28175) diluted 1:500 in 1% BSA in PBS along with 0.1 μg/ml of 4,6 diamidino-2phylindole (DAPI) (Sigma) for one hour, followed by three washes in PBS. Cells were then cover slipped with Fluoro Gel mounting medium and imaged on an EVOS fluorescence microscope. Fluorescence intensity was quantified using ImageJ.

[1] = LPS and F-652 co-exposed, LPS only 1.49
[2] = LPS and F-652 compared to control

B1: F-652: recombinant IL-22 dimer consisting of two monomeric subunits each comprising a sequence shown in SEQ ID NO: 24 (protein)
chain 1: APISSHCRLDKSNFQQPYITNRTFMLAKEASLADNNTDVRLIGEKLFHGVSMSERCYLMKQVLNFTLEEVLFPQSDRFQPYMQEVVPFLARLSNRLSTCHIEGDDLHIQRNVQKLKDTVKKLGESGEIKAIGELDLLFMSLRNACIGSGGGSGGGGSGGGGSVECPPCPAPPVAGPSVFLFPPKPKDTLMISRTPEVTCVVVDVSHEDPEVQFNWYVDGVEVHNAKTKPREEQFNSTFRVVSVLTVVHQDWLNGKEYKCKVSNKGLPASIEKTISKTKGQPREPQVYTLPPSREEMTKNQVSLTCLVKGFYPSDIAVEWESNGQPENNYKTTPPMLDSDGSFFLYSKLTVDKSRWQQGNVFSCSVMHEALHNHYTQKSLSLSPGK
chain 2: APISSHCRLDKSNFQQPYITNRTFMLAKEASLADNNTDVRLIGEKLFHGVSMSERCYLMKQVLNFTLEEVLFPQSDRFQPYMQEVVPFLARLSNRLSTCHIEGDDLHIQRNVQKLKDTVKKLGESGEIKAIGELDLLFMSLRNACIGSGGGSGGGGSGGGGSVECPPCPAPPVAGPSVFLFPPKPKDTLMISRTPEVTCVVVDVSHEDPEVQFNWYVDGVEVHNAKTKPREEQFNSTFRVVSVLTVVHQDWLNGKEYKCKVSNKGLPASIEKTISKTKGQPREPQVYTLPPSREEMTKNQVSLTCLVKGFYPSDIAVEWESNGQPENNYKTTPPMLDSDGSFFLYSKLTVDKSRWQQGNVFSCSVMHEALHNHYTQKSLSLSPGK
modifications: homodimer
Question: How did the ADAM17 levels (HUVECs; F-652 alone, control 1.09) turn out when B1 was run?
Answer: Its ADAM17 levels is 1.14 RE.

Question: What about the MMP-7 levels (HUVECs; F-652 alone, control 1.11) of the same molecule?
Answer: Its MMP-7 levels is 1.23 RE.

Question: And the “levels of any matrix metalloproteinase” value (HUVECs; F-652 only)?
Answer: The value was “did not change”.

Question: And the “VE-CAD RNA levels” value (HUVECs; F-652 only exposed, control 1.06)?
Answer: Its value is 1.01 RE.

Question: What about the ADAM17 levels (HUVECs; LPS and F-652, control 1.09, LPS 2.42) of the same molecule?
Answer: Its ADAM17 levels is 1.22 RE.

Question: And the MMP-7 levels (HUVECs; LPS and F-652, control 1.11, LPS 2.99)?
Answer: Its MMP-7 levels is 1.53 RE.

Question: What about the “MYD88 RNA expression” value (HUVECs; LPS and F-652 co-exposed, LPS only 1.48) of the same molecule?
Answer: Its value is 0.72 RE.

Question: And the Exostosin-1 level (HUVECs; [1])?
Answer: The Exostosin-1 level was 0.82 RE.

Question: What about the TIMP2 level (HUVECs; [1]) of the same molecule?
Answer: Its TIMP2 level is 0.82 RE.

Question: What about the “IRAK4 mRNA expression” value (HUVECs; LPS and F-652 co-exposed, LPS only 1.51) of the same molecule?
Answer: The value was 0.86 RE.

Question: What about the Exostosin-2 level (HUVECs; LPS and F-652 co-exposed, LPS only 1.88) of the same molecule?
Answer: Its Exostosin-2 level is 0.99 RE.

Question: What about the “TIRAP mRNA expression” value (HUVECs; LPS and F-652 co-exposed, LPS only 1.92) of the same molecule?
Answer: Its value is 0.82 RE.

Question: What about the “VE-CAD RNA levels” value (HUVECs; LPS and F-652 co-exposed, control 1.06, LPS only 1.96) of the same molecule?
Answer: Its value is 0.81 RE.

Question: What about the “expression of MMP-9” value (HUVECs; [2]) of the same molecule?
Answer: The value was “did not change”.

Question: What about the “expression of Matrix Metalloproteinase-1 (MMP-1)” value (HUVECs; [2]) of the same molecule?
Answer: The value was “did not significantly change”.

Question: What about the “relative expression of MMP-2” value (HUVECs; [2]) of the same molecule?
Answer: The value was “lower relative expression”.

Question: And the “relative expression of MMP-14” value (HUVECs; [2])?
Answer: The value was “lower relative expression”.

Question: What about the MMP-9 relative expression (HUVECs; LPS and F-652 exposed compared to LPS exposed (2.99)) of the same molecule?
Answer: Its MMP-9 relative expression is 1.53 RE.

Question: And the “TLR4 mRNA” value (HUVECs; all comparisons)?
Answer: Its value is “not significantly different”.

Question: What about the “Levels of TRAM, TRAF6, IRAK1, and TRIF” value (HUVECs; all group comparisons) of the same molecule?
Answer: The value was “not significantly different”.

Question: What about the “Tissue inhibitor of metalloproteinase-1 (TIMP1)” value (HUVECs; among various HUVEC exposure groups) of the same molecule?
Answer: The value was “not different”.

Question: And the “sgm-N RNA copies compared to no F-652 treatment” value (SARS-CoV-2; post-treatment, 100 ng/mL F-652 basolaterally on the day post-viral infection)?
Answer: Its value is “significantly lower”.

Question: What about the “mapping of RNA-seq reads to the SARS-CoV-2 genome compared to no F-652 treatment” value (SARS-CoV-2; pre-treatment and post-treatment with 100 ng/mL F-652) of the same molecule?
Answer: Its value is “reduced mapping”.

Question: And the “sgm-N RNA copies compared to no F-652 treatment” value (SARS-CoV-2; pre-treatment, 100 ng/mL F-652 for 18 hours before infection)?
Answer: Its value is “significantly lower”.

Question: What about the “ratio of phosphorylated STAT3 to total STAT3” value (STAT3) of the same molecule?
Answer: Its value is “significantly higher”.

Question: What about the “IL-22Ra1 receptor expression compared to control” value (IL-22Ra1; F-652 alone) of the same molecule?
Answer: Its value is “did not result in a difference”.

Question: And the “IL-22Ra1 receptor relative expression” value (IL-22Ra1; LPS and F-652, control 1.00)?
Answer: The value was 0.69 RE.

Source: US20230079150A1, “METHODS FOR PREVENTION OR TREATMENT OF VIRUS-INDUCED ORGAN INJURY OR FAILURE WITH IL-22 DIMER” (priority 2020, published 2023)
